The target in one assay is TGF-β1 (Homo sapiens, UniProt P01137). As to the kind of experiment: Binding assay of asporin and TGF-β by pull-down assay method. The conditions noted are these: S-Protein agarose precipitate, Western blotting. The method, then:
With the pET29b-ASP13 and pET29b-ASP14 thus prepared as the templates, S-tagged human asporin D13 and D14 were prepared by performing a reaction in the presence of Transcend™ Biotin-Lysyl-tRNA using TNT Quick Coupled Transcription/Translation Systems (Promega). A reaction mixture comprising S-tagged human asporin D13 or D14 (10 μl) and TGF-β1 (0.1 μg) were mixed in buffer A (50 mM Tris (pH 7.5), 150 mM NaCl, 1% Triton X-100, complete protease inhibitor cocktail tablets (Roche)) at 4° C. for 1 hour, S-Protein agarose (Novagen, 12.5 μl) was added, and the mixture was further incubated at room temperature for 30 minutes. The precipitated resin was washed with buffer A five times, after which SDS-PAGE was performed under reducing conditions. S-tagged human asporin in the precipitate was detected by Western blotting using streptavidin-HRP (R&D Systems), and TGF-β1 was detected by Western blotting using biotinylated anti-TGF-β1 antibody (Genzyme). As a result of an examination of the binding of human asporin and TGF-β by the method described above, a band of TGF-β1 was detected in the precipitate comprising S-tagged human asporin D13 or D14 (FIG. 17).
Using the recombinant mouse asporin purified by the method described in Example 31, its capability of binding with TGF-β1 was examined by the method described in Example 22 (pull-down assay method); as a result, it was confirmed that TGF-β1 was detected in the precipitate of purified mouse asporin (FIG. 26).
In general terms: In western blotting, separated proteins are transferred to a membrane and probed.

Assay [1] relates to normal human articular chondrocytes of knee joint (NHAC). As to the kind of experiment: Purified recombinant mouse asporin on TGF-β-stimulated gene expression in NHAC. The assay is classed as cell-based. The method, then:
NHAC purchased from Cambrex Company was cultured in the growth medium attached to the kit (chondrocyte growth medium, CGM) in a 10-cm petri dish, after which the cells were scraped with 0.05% Trypsin/EDTA, and inoculated to a 12-well plate at 10^5 cells/well; on the following day, the medium was exchanged with DMEM/F12+0.2% FBS; 5 hours later, asporin was added. After the cells were further cultured for 12 hours, TGF-β1 (40 ng/ml) was added; from the cells cultured for 48 hours, total RNA preparation, cDNA synthesis, and real-time PCR were performed according to the methods described in Example 12.
Using a cDNA prepared by the method described in Example 35, the expression of the asporin and TGF-β1 genes was examined by real-time PCR. […] From this, it was shown that asporin negatively regulated the expression of both the asporin and TGF-β1 genes in the presence of TGF-β1.

Assay [2] deals with Smad2 phosphorylation in ATDC5 cells. Nature of the assay: TGF-β1-stimulated Smad2 phosphorylation in ATDC5 cells (Western blotting). The assay is classed as cell-based, mouse. The conditions noted are these: TGF-β1 10 ng/ml, 5 minutes. Here is the method:
ATDC5 was inoculated to a 12-well plate, and cultured using the medium 1-2 described in Example 19 until the cells became confluent, after which the medium was exchanged with the same medium but containing 0.2% FBS; 4 hours later, asporin was added. 12 hours later, TGF-β1 (10 ng/ml) was added; 5 minutes later, the cells were lysed with the M-PER reagent (PIERCE). Using this cell extract, SDS-PAGE was performed, and according to the protocol attached to an antibody product of Cell Signaling Company, Western blotting was performed. As the primary antibodies for detection of phosphorylated Smad2 and Smad2 protein, phospho-Smad2 antibody (Cell Signaling) and rabbit anti-Smad2 (Zymed Laboratories) were used, respectively. As the secondary antibody, anti-rabbit IgG-HRP (Cell Signaling) was used.

The next assay concerns the target bFGF (Homo sapiens, UniProt P09038). As to the kind of experiment: Binding assay of mouse asporin and bFGF by microplate assay method. The conditions noted are these: bFGF-coated plate, OD405. The method, then: A binding assay was performed using the method described in Example 24 with a partial modification as described below. To a Maxisorp 96-well microplate of Nunc, a 1 μg/ml TGF-β1 solution prepared with 0.05M sodium carbonate buffer (pH 9.6) was dispensed at 100 μl/well, and the microplate was coated with TGF-β1 at 4° C. overnight. The TGF-β-coated wells were blocked in 200 μl/well of Block Ace at 37° C. for 3 hours. Next, mouse asporin and biotinylated mouse asporin, diluted with Block Ace, were added to obtain a total volume of 100 μl per well, and the microplate was incubated at 4° C. overnight. The wells were washed with […] of TBST three times, after which streptavidin-alkaline phosphatase (Novagen) diluted 1000 fold with TBST was added at […], and the microplate was incubated at room temperature for 1 hour. The wells were washed with 400 μl/well of TBST five times, and then colored using an alkaline phosphatase substrate kit (BIO-RAD), and the absorbance at 405 nm was measured using Ultramark Microplate Imaging System (BIO-RAD).
A binding assay was performed in the same manner as Example 34 except that the microplate was coated with bFGF solution in place of 1 μg/ml TGF-β1.

In assay [3] the test system is Smad3-specific gene transcription in NHAC. Nature of the assay: SBE4-Luc reporter assay of TGF-β1-stimulated Smad3-specific gene transcription in NHAC. The assay is classed as cell-based, human. The conditions noted are these: asporin 40 μg/ml, TGF-β1 10 ng/ml, 24 hours. The method, then: NHAC was inoculated to a 24-well plate at 2.5×10^4 cells/well, cultured in a DMEM/F12 containing 10% FBS and penicillin/streptomycin for 24 hours, and transfected with the SBE4-Luc (Smad binding element ×4-luciferase) plasmid and the pRL-TK vector, which was used as endogenous control. 48 hours later, asporin (40 μg/ml) was added; still 12 hours later, TGF-β1 (10 ng/ml) was added; and the cells were incubated for 24 hours. The luciferase activity in the cells was measured using a PG-DUAL-SP reporter assay system (Toyo Ink).
On the technique in general: In a reporter assay the amount or activity of a reporter protein is the signal.

A further assay concerns NHAC. As to the kind of experiment: MTT assay of TGF-β1-stimulated cell growth in NHAC. In kind it is cell-based, human. Conditions: TGF-β1 40 ng/ml with asporin 5 or 20 μg/ml, 5 days. The method, then: NHAC was inculated to a 12-well plate at 1×10^5 cells/well, and cultured in a DMEM/F12 containing 10% FBS supplemented with TGF-β1 (40 ng/ml) and asporin (5 or 20 μg/ml) for 5 days, after which the degree of cell growth was examined by the MTT assay method described below. Specifically, 3-(4,5-dimethyl-2-thiazolyl)-2,5-diphenyl-2H-tetrazolium bromide (MTT, Dojindo Laboratory) was dissolved in DMEM/F12 to obtain a concentration of 1 mg/ml, the solution was added to the cells after the medium was removed by suction, and the cells were cultured at 37° C. for 1 hour. Thereafter the medium containing MTT was discarded, and the cells were subjected to extraction treatment using a Lysis reagent (86% isopropanol, 40 mM hydrochloric acid, 1% SDS). This cell lysate was transferred to a 96-well plate, and the absorbance at 550 nm was measured using a microplate reader.
For orientation: Tetrazolium assays rely on reduction of a dye to a coloured formazan, in cell work by metabolically active cells.

TGF-β1, sequence (P01137 279-390 limits assumed, species assumed): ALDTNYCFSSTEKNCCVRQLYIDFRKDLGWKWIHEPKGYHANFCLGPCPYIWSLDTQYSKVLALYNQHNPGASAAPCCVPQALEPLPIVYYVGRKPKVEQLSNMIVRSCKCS
bFGF, sequence (P09038 134-288 limits assumed, species assumed): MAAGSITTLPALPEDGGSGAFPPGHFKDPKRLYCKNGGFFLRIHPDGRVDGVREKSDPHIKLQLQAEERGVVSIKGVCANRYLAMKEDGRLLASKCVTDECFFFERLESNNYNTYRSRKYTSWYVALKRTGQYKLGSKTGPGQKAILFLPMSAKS

B1: purified mouse asporin: recombinant mouse asporin expressed in Escherichia coli, refolded from insoluble fraction and purified by gel filtration (protein)
chain: DMEDTDDDDNDDDDNSLFPTKEPVNPFFPFDLFPTCPFGCQCYSRVVHCSDLGLTSVPNNIPFDTRMVDLQNNKIKEIKENDFKGLTSLYALILNNNKLTKIHPKTFLTTKKLRRLYLSHNQLSEIPLNLPKSLAELRIHDNKVKKIQKDTFKGMNALHVLEMSANPLENNGIEPGAFEGVTVFHIRIAEAKLTSIPKGLPPTLLELHLDFNKISTVELEDLKRYRELQRLGLGNNRITDIENGTFANIPRVREIHLEHNKLKKIPSGLQELKYLQIIFLHYNSIAKVGVNDFCPTVPKMKKSLYSAISLFNNPMKYWEIQPATFRCVLGRMSVQLGNVGK
modifications: left off: small tags and cut ends
With B1, the “binding to TGF-β1 (pull-down)” value with TGF-β1 is “bound to TGF-β1 in vitro”. Further, in assay [1] (NHAC, cDNA of Example 35), the “TGF-β1-stimulated increases in expression of the asporin and TGF-β1 genes” value is on record as “both suppressed”. The “TGF-β1-stimulated expression of the type II collagen and aggrecan genes” value in assay [1] (TGF-β1 40 ng/ml, 48 hours) was “suppressed the TGF-β1-stimulated expression of the type II collagen and aggrecan genes in NHAC concentration-dependently”. In assay [2], the “Smad2 phosphorylation by TGF-β1 stimulation” value is listed as “suppressed the Smad2 phosphorylation by TGF-β1 (10 ng/ml) stimulation concentration-dependently”. In addition, in the assay with bFGF, the “binding to bFGF (microplate)” value is “bound to bFGF concentration-dependently and specifically”. Moreover, in assay [3], the “TGF-β1-stimulated elevation of luciferase activity (SBE4-Luc)” value was “significantly suppressed”. In addition, the “cell growth of NHAC (MTT, absorbance at 550 nm)” value with NHAC is on record as “suppressed concentration-dependently”.

The values above are taken from patent US20090075921A1, “Bone/joint disease sensitivity gene and use thereof” (Riken, priority 2004, published 2009).
